Measured values published in patent US20180127503A1 (EUREKA THERAPEUTICS, published 2018).
Values belong to the binder of their own block, whether it stands above or below them. No end group written: not given here. *: point of attachment. Biotin = O=C1N[C@H]2[C@H](CS[C@H]2CCCCC(=O)*)N1

Experiments:
[1] = molecular target: T1, human ROR2 expressed on the cell surface (human, UniProt Q01974 34-943); assay: flow cytometry, H345 cells (SCLC); design: unit not given here
T1 construct: Endogenous ROR2 of human tumour cell lines; also called cell surface ROR2; ROR2 on tumour cell lines
T1 sequence (Q01974 34-943 limits assumed): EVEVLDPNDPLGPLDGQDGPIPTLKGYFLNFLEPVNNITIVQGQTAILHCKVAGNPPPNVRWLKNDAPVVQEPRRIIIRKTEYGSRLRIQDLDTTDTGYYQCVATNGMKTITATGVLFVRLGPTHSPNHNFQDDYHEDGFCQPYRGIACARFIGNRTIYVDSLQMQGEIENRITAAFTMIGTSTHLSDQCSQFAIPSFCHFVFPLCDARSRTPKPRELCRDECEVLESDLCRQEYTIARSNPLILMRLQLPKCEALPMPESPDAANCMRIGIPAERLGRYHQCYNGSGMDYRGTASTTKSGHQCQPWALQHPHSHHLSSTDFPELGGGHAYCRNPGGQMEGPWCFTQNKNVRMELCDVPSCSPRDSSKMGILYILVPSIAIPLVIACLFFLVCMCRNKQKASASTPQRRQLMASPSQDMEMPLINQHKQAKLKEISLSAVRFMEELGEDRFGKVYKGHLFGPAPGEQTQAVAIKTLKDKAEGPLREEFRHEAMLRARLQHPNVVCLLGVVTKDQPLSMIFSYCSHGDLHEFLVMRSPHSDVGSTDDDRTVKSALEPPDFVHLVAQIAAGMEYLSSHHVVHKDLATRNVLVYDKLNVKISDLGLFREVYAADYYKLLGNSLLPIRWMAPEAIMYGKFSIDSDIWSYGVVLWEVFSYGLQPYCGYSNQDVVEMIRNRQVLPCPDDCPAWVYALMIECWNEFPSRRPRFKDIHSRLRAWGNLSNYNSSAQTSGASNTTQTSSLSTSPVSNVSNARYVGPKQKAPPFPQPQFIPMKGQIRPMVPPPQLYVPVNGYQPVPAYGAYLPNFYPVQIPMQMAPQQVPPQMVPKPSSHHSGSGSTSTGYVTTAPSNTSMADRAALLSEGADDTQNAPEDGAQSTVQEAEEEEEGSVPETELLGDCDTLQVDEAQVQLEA
Method: (§1) Human tumour cell lines were authenticated using short tandem repeat (STR) analysis. They were cultured in RPMI1640 (Cellgro) supplemented with 10% fetal bovine serum (FBS, Life Technologies) at 37° C. in a 5% CO₂ humidified incubator. They were harvested, washed in PBS and reacted with ROR2-IgG at 1 ug/10⁶ tumour cells on ice for an hour. #901-IgG was used as a negative control at the same dose. After washing, a secondary PE-conjugated goat anti-human IgG, Fcγ fragment specific (1:100, Jackson ImmunoResearch) was added for another 30 min incubation. Staining was analyzed on a FACSCalibur (BD Biosciences). ROR2 (full length) antibody binding towards multiple cancer cell lines were compared with Rituxan and Herceptin antibodies. The cancer cell lines were derived from breast cancer, colorectal cancer, mesothelioma, hepatocellular carcinoma, ovarian cancer, osteosarcoma, neuroblastoma, etc. ROR2 #90 antibody could recognize most of the tumour cells tested, and in some cases, the binding intensity was higher than Herceptin (see Tables 8 to 10).

[2] = molecular target: T1, human ROR2 expressed on the cell surface; assay: flow cytometry, H524 cells (SCLC); design: reference not given here
Method: as §1

[3] = molecular target: T1, human ROR2 expressed on the cell surface; assay: flow cytometry, MCF7 cells (breast CA); design: unit not given here
Method: as §1

[4] = molecular target: T1, human ROR2 expressed on the cell surface; assay: flow cytometry, HTB63 cells (melanoma); design: unit not given here
Method: as §1

[5] = molecular target: T1, human ROR2 expressed on the cell surface; assay: flow cytometry, AU565 cells (breast CA); design: unit not given here
Method: as §1

[6] = molecular target: T1, human ROR2 expressed on the cell surface; assay: flow cytometry, HTB27 cells (breast CA); design: unit not given here
Method: as §1

[7] = molecular target: T1, human ROR2 expressed on the cell surface; assay: flow cytometry, U251 LUC cells (glioma); design: unit not given here
Method: as §1

[8] = molecular target: T1, human ROR2 expressed on the cell surface; assay: flow cytometry, SKMEL28 cells (melanoma); design: reference not given here
Method: as §1

[9] = molecular target: T1, human ROR2 expressed on the cell surface; assay: flow cytometry, MCF7-Luc cells (breast CA); design: unit not given here
Method: as §1

[10] = molecular target: T1, human ROR2 expressed on the cell surface; assay: flow cytometry, NMB7 cells (neuroblastoma); design: unit not given here
Method: as §1

[11] = molecular target: T1, human ROR2 expressed on the cell surface; assay: flow cytometry, SKNJB cells (neuroblastoma); design: unit not given here
Method: as §1

[12] = molecular target: T1, human ROR2 expressed on the cell surface; assay: flow cytometry, SKNMM cells (neuroblastoma); design: unit not given here
Method: as §1

[13] = molecular target: T1, human ROR2 expressed on the cell surface; assay: flow cytometry, CRL1427 cells (osteosarcoma); design: unit not given here
Method: as §1

[14] = molecular target: T1, human ROR2 expressed on the cell surface; assay: flow cytometry, NCI-H2052 cells (mesothelioma); design: reference not given here
Method: as §1

[15] = molecular target: T1, human ROR2 expressed on the cell surface; assay: flow cytometry, OUMS 27 cells (chondrosarcoma); design: unit not given here
Method: as §1

[16] = molecular target: T2, biotin-SGSG-KTITATGVLFVRLGP ROR2 array peptide (human); assay: ELISA on biotinylated ROR2 peptide array
T2 construct: Peptide of the overlapping ROR2 peptide array, immobilised on streptavidin plates
T2 peptide: Biotin-SGSGKTITATGVLFVRLGP
Method: To better understand the structural basis of the ROR2-specific antibody as a drug candidate, a standard epitope mapping was performed by ELISA against a ROR2 peptide array. The peptide array covers the whole length of the ROR2 protein through 96 overlapping peptides ([…] each with 4 amino acids worth of space between them). The peptides were biotinlyated at the N-terminal to immobilize them onto streptavidin ELISA plates. A spacer (SGSG) was used to provide flexibility. The space was inserted at the N-terminal biotin-SGSG-15 amino acids. ELISA assays were performed with the full length ROR2 antibodies as the primary antibody and an anti-human Fc AP-conjugated antibody was used for detection. […] FIG. 12 indicates the epitope position in ROR2 primary structure. This sequence is not shared by ROR1 and not found in human proteins by PBLAST.

B3: ROR2-27 full length human IgG1 antibody (antibody, V domains shown)
VH: QVQLVESGAEVKKPGESLKISCKASGYSFSNYWIGWVRQMPGKGLEWMGIIYPDDSDTRYSPSFQGQVTISADKSISTAYLQWYSLKVADTAKYYCVRPRGAFDIWGQGTTVTVSS
VL: QSVLTQPPSVSGAPGQRVTISCTGSSSNIGAGHAVHWYQQLPGTAPKLLIYDNANRPSGVPDRFSGSQSGTSASLAITGLQTGDEADYYCGTWDDSPSAYVFGTGTKVTVLG
notes: also called clone #27; clone #027 IgG1
binding intensity [1]: 26 | binding intensity [2]: 16 | binding intensity [3]: 27 | binding intensity [4]: 8 | binding intensity [5]: 8 | binding intensity [6]: 11 | binding intensity [7]: 9 | binding intensity [8]: 8 | binding intensity [9]: 74 | binding intensity [10]: 23 | binding intensity [11]: 141 | binding intensity [12]: 69 | binding intensity [13]: 11 | binding intensity [14]: 46 | binding intensity [15]: 48

B4: ROR2-90 full length human IgG1 antibody (antibody, V domains shown)
VH: EVQLVESGPGLVKPSQTLSLTCTVSGGSISSGGYYWSWIRQHPGKGLEWIGYIYYSGSTYYNPSLKSRVTISVDTSKNQFSLKLSSVTAADTAMYYCARGGLYWTYSQDVWGQGTLVTVSS
VL: QPVLTQPPSASGTPGQRVTISCSGSSSNIGSDYVSWYQQLPGTAPKLLIYRNDQRPSGVPDRFSGSKSGTSASLAISGLRSEDEADYYCVAWDDSLSGYVFGSGTKVTVLG
notes: also called clone #90; antibody #90
binding intensity [1]: 48 | binding intensity [2]: 20 | binding result [16]: binds | binding intensity [3]: 115 | binding intensity [4]: 27 | binding intensity [5]: 211 | binding intensity [6]: 125 | binding intensity [7]: 27 | binding intensity [8]: 26 | binding intensity [9]: 190 | binding intensity [10]: 47 | binding intensity [11]: 254 | binding intensity [12]: 117 | binding intensity [13]: 45 | binding intensity [14]: 101 | binding intensity [15]: 78

B5: ROR2-23 full length human IgG1 antibody (antibody, V domains shown)
VH: EVQLVQSGAEVKKPGESLKISCQGSGYRFSKYWIGWVRQMPGKGLEWMGIIYPGDSDTRYSPSFQGQVTISADKSISTAYLQWSSLKASDTAMYYCARSFSSFIYDYWGQGTLVTVSS
VL: ETTLTQSPGTLSVSPGERATLSCRASQSVSSNLAWYQQKRGQAPRLLIYGASTRATGIPVRFSGSGSGTEFTLTISRLEPEDFAVYYCQQYGRSPLTFGGGTKVDIKR
notes: The light chain of clone 023 is labelled kappa; also called clone #23; clone #023 IgG1
binding intensity [1]: 34 | binding intensity [2]: 28 | binding intensity [3]: 52 | binding intensity [4]: 16 | binding intensity [5]: 102 | binding intensity [6]: 58 | binding intensity [7]: 14 | binding intensity [8]: 20 | binding intensity [9]: 111 | binding intensity [10]: 35 | binding intensity [11]: 182 | binding intensity [12]: 77 | binding intensity [13]: 30 | binding intensity [14]: 65 | binding intensity [15]: 71

Other lines, results leading:

binding intensity [1]: 49 | binding intensity [2]: 32 | binding intensity [3]: 21 | binding intensity [4]: 16 | binding intensity [5]: 83 | binding intensity [6]: 24 | binding intensity [7]: 120 | binding intensity [8]: 20 | binding intensity [9]: 42 | binding intensity [10]: 58 | binding intensity [11]: 238 | binding intensity [12]: 126 | binding intensity [13]: 54 | binding intensity [14]: 43 | binding intensity [15]: 53
B1: ROR2-241 full length human IgG1 antibody (antibody, V domains shown)
VH: EVQLVQSGAEVKKPGASVKVSCKASGYTFTNYYIHWVRQAPGQGLEWMGIINPTSGRTRYAQRFQGRVTMTRDTSTNTVYMDLSSLRSEDTAMYYCARSGYYWGVNGDQWGQGTLVTVSS
VL: SYELTQPLSVSVALGQTARITCGGNNIGSKNVHWYQQKPGQAPVLVIYRDSNRPSGIPERFSGSNSGNTATLTISRAQAGDEADYYCQVWDSSIVVFGGGTKLTVLG

binding intensity [1]: 36 | binding intensity [2]: 7 | binding intensity [3]: 3 | binding intensity [4]: 5 | binding intensity [5]: 4 | binding intensity [6]: 7 | binding intensity [7]: 5 | binding intensity [8]: 4 | binding intensity [9]: 39 | binding intensity [10]: 33 | binding intensity [11]: 199 | binding intensity [12]: 84 | binding intensity [13]: 4 | binding intensity [14]: 8 | binding intensity [15]: 6
B2: ROR2-240 full length human IgG1 antibody (antibody, V domains shown)
VH: QITLKESGPELVKPTQTLTLTCTFSGFSLSTSGMSVSWIRQPPGKALEWLARIDWDDDKYYSTSLKTRLTISKDTSKNQVVLTMTNTDPVDTATYYCARGFYLAYGSYDSWGQGTLVTVSS
VL: QSALTQPASVSGSPGQSITISCTGTSGDVGGYNYVSWYQHHPGKAPKLIIYDVNKRPSGFSDRFSGSKSGNTASLTISGLQAEDEADYYCSSYTSTSTVFGGGTKLTVLG
notes: also called clone #240 IgG1
